This is an account of results in paper PMC4898654 (Biochemistry, 2016).

What is called Kd is the constant that tells how readily two partners part at equilibrium.

Where no end group is shown, it is not given here.

One assay deals with Rev1-CT domain. The settings on record: human RIR motifs; cited from earlier work.
The target of assay [1] is Polκ RIR (Homo sapiens) (UniProt Q9UBT6). Put plainly: intrinsic tryptophan fluorescence. The settings on record: cited from earlier work.
For assay [2] the target is unchanged. Put plainly: SPR. The settings on record: cited from earlier work.
The target in assay [3] is T1, Human Rev1 C-terminal domain (Rev1-CT; residues 1158-1251) (human, UniProt Q9UBZ9 1158-1251).
T1 sequence (looked up): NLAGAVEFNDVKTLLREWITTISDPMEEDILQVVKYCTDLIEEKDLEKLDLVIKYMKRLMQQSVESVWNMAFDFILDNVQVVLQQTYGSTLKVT
Kind of assay: SPR. Background: Surface plasmon resonance follows binding to a sensor surface in real time, without labels.

Another assay concerns yeast Rev7. The settings on record: unstructured C-terminal part of Pol32, purified proteins; cited from earlier work.

For the molecule CEMSHKKSFFDKKRSER [Polκ-RIR], in the assay with Rev1-CT domain, the “affinity range of Rev1-CT interactions with RIR motifs” value is recorded as “µM to mM affinities”.
Consider Rev1 CTD (from UniProt Q9UBZ9), for which the Kd in the assay with Polκ RIR (Homo sapiens) [1] was 0.3 µM; with Polκ RIR (Homo sapiens) [2], 7.6 µM.
Regarding EMSHKKSFFDKKRSER [Polκ-RIR peptide (residues 560-575) modified with an N-terminal cysteine residue], in assay [3], binding was characterised by a dissociation constant (Kd) of 1.7 ± 0.6 µM.

B1: Pol32: subunit of yeast Polζ (homologue of human PolD3) (protein, UniProt P47110 1-350, looked up)
DNA polymerase delta subunit 3: MDQKASYFINEKLFTEVKPVLFTDLIHHLKIGPSMAKKLMFDYYKQTTNAKYNCVVICCYKDQTIKIIHDLSNIPQQDSIIDCFIYAFNPMDSFIPYYDIIDQKDCLTIKNSYELKVSESSKIIERTKTLEEKSKPLVRPTARSKTTPEETTGRKSKSKDMGLRSTALLAKMKKDRDDKETSRQNELRKRKEENLQKINKQNPEREAQMKELNNLFVEDDLDTEEVNGGSKPNSPKETDSNDKDKNNDDLEDLLETTAEDSLMDVPKIQQTKPSETEHSKEPKSEEEPSSFIDEDGYIVTKRPATSTPPRKPSPVVKRALSSSKKQETPSSNKRLKKQGTLESFFKRKAK
As for B1, the “Rev7 - Pol32 interaction” value in the assay on yeast Rev7 is “direct interaction”.
